The source of these data is article PMC10360031.

For the experiment, the target named is cell-surface vimentin (CSV) on mouse embryonic fibroblasts mEF +/+ (mouse (endogenous in mEF)) (UniProt P20152). Put plainly: AFM single-molecule force spectroscopy.

The substance “South Africa B.1.135 RBD (from UniProt P0DTC2) (domain or fragment)” returned a mean rupture force at 5 um/s of 25.8 pN.
On to “Brazil P.1 RBD (from UniProt P0DTC2) (domain or fragment)”, for which the mean rupture force at 5 um/s was 31.3 pN.
In the case of “wild-strain SARS-CoV-2 spike protein RBD (from UniProt P0DTC2) (domain or fragment)”, the binding probability (specific adhesion events) (% of force curves) is < 10.
